Results from patent publication US20150064134A1.
Changes are numbered by the printed parent chain.

Experiments:
Experiment in all cases: cell-based or functional assay
SRPK1(h) (human) = SRPK1(h) (human) (UniProt Q96SB4)
SAPK2b(h) (human) = SAPK2b(h) (human) (UniProt Q15759)
Rsk2(h) (human) = Rsk2(h) (human) (UniProt P51812)
SGK2(h) (human) = target: T1, SGK2(h) (human) (UniProt Q9HBY8)
T1 sequence (looked up): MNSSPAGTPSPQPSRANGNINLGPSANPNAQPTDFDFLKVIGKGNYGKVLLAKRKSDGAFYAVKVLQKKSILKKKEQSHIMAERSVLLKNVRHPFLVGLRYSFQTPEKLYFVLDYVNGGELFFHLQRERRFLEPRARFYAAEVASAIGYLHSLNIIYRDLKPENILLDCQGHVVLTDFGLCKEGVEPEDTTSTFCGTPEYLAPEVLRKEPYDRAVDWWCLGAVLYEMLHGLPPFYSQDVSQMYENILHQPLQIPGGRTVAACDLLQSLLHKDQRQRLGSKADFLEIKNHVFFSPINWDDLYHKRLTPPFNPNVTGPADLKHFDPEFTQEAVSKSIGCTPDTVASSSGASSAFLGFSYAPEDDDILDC

GSK3β(h) (human) = GSK3β(h) (human) (UniProt P49841)
LOK(h) (human) = LOK(h) (human) (UniProt O94804)
DMPK(h) (human) = DMPK(h) (human) (UniProt Q09013)
EphB4(h) (human) = EphB4(h) (human) (UniProt P54760)
ALK(h) (human) = ALK(h) (human) (UniProt Q9UM73)
CDK5/p35(h) (human) = CDK5/p35(h) (human) (UniProt Q00535)
Flt3(D835Y)(h) (human) = target: T2, Flt3(D835Y)(h) (human) (UniProt P36888)
T2 sequence (looked up): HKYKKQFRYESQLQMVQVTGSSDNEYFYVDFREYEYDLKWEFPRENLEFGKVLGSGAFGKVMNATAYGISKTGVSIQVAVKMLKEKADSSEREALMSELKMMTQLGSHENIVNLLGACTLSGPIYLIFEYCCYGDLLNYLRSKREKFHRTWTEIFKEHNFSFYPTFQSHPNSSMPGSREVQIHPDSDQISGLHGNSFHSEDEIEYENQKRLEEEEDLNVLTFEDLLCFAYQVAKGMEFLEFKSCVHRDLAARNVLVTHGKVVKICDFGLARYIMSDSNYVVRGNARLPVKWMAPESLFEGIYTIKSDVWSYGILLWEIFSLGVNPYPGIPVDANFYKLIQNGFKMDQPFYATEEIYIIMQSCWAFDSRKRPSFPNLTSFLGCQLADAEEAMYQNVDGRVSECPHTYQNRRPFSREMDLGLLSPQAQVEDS

IR(h), activated (human) = IR(h), activated (human) (UniProt P06213)
CHK2(h) (human) = CHK2(h) (human) (UniProt O96017)
MAPKAP-K2(h) (human) = MAPKAP-K2(h) (human) (UniProt P49137)
Tec(h) activated (human) = target: T3, Tec(h) activated (human) (UniProt P42680)
T3 sequence (looked up): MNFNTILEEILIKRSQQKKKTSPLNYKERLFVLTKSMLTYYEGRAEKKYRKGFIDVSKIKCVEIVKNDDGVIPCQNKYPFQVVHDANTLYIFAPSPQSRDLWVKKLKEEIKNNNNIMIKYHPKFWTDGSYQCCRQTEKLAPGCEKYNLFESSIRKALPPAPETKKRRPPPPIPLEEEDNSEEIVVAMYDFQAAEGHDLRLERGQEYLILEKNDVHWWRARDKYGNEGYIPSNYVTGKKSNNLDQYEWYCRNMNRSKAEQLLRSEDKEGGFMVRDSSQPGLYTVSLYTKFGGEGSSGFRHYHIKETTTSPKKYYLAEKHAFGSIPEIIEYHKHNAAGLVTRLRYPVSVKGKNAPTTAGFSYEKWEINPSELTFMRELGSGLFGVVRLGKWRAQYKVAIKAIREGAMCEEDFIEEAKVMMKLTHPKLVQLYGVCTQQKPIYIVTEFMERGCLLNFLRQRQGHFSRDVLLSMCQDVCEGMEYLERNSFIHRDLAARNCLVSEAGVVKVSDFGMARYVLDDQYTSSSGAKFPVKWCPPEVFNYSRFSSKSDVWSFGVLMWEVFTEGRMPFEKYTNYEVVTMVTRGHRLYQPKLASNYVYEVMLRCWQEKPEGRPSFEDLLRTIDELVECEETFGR

CSK(h) (human) = CSK(h) (human) (UniProt P41240)
Flt3(h) (human) = target: T4, Flt3(h) (human) (UniProt P36888)
T4 sequence (looked up): T2 sequence (looked up) with Y272D

IR(h) (human) = IR(h) (human) (UniProt P06213)
MARK1(h) (human) = MARK1(h) (human) (UniProt Q9P0L2)
Tie2(h) (human) = Tie2(h) (human) (UniProt Q02763)
[1] = target: EGFR(T790M,L858R)(h) (human) (UniProt P00533)

Chain of Tie2(h) (human) (Q02763 771-1124 limits assumed): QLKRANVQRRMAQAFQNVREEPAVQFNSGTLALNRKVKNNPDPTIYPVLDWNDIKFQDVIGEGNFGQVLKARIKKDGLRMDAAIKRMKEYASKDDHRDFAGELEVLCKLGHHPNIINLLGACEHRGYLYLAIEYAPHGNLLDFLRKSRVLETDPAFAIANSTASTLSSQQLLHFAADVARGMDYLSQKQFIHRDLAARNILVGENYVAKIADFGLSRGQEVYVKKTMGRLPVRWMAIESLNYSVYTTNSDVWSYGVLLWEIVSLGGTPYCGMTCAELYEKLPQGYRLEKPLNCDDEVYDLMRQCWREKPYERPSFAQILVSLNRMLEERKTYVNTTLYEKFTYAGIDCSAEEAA
Chain of EphB4(h) (human) (P54760 561-987 limits assumed): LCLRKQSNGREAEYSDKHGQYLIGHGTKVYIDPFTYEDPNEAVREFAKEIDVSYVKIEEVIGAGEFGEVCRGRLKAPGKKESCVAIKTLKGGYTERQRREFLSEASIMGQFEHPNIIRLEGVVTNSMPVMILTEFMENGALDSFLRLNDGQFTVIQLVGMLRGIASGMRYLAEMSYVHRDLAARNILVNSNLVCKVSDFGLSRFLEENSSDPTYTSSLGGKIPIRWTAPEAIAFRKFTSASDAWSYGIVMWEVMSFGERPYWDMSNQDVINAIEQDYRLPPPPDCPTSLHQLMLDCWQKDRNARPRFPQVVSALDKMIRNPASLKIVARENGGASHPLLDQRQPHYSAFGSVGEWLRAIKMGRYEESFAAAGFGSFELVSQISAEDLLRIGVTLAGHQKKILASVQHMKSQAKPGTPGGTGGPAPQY
Chain of CHK2(h) (human) (O96017 5-543 limits assumed): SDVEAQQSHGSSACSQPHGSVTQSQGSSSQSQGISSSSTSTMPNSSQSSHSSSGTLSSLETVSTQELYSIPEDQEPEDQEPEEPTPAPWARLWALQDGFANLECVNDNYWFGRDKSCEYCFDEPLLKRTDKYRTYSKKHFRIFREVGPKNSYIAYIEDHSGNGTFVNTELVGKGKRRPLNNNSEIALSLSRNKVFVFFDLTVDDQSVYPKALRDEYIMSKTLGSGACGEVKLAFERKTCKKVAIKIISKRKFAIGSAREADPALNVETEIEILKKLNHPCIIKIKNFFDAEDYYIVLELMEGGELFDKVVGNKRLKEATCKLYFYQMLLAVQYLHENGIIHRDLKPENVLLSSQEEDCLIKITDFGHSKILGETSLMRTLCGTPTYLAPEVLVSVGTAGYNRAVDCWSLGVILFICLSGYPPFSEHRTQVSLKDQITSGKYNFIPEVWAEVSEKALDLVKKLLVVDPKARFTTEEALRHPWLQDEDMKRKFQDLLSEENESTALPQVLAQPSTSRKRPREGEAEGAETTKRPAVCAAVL
Chain of SAPK2b(h) (human) (Q15759 whole entry): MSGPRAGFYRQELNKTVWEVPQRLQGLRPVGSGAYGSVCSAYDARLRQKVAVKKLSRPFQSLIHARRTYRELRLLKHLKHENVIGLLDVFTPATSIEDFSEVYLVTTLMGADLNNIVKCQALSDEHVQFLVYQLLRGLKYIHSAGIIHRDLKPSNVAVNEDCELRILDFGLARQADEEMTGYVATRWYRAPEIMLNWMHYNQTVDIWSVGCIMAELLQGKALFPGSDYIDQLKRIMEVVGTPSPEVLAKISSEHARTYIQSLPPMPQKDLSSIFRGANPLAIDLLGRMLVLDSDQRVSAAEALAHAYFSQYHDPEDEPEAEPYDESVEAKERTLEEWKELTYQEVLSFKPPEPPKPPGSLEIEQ
Chain of IR(h), activated (human) (P06213 1005-1310 limits assumed): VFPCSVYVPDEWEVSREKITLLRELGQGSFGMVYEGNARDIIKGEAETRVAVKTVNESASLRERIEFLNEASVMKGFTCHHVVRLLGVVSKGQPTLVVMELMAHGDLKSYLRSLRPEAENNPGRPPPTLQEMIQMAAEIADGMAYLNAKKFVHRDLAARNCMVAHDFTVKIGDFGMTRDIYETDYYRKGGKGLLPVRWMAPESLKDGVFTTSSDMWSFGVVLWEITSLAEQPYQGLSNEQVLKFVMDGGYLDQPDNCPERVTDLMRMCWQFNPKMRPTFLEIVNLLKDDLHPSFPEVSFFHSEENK
Chain of IR(h) (human) (P06213 1005-1310 limits assumed): as above
Chain of Rsk2(h) (human) (P51812 whole entry): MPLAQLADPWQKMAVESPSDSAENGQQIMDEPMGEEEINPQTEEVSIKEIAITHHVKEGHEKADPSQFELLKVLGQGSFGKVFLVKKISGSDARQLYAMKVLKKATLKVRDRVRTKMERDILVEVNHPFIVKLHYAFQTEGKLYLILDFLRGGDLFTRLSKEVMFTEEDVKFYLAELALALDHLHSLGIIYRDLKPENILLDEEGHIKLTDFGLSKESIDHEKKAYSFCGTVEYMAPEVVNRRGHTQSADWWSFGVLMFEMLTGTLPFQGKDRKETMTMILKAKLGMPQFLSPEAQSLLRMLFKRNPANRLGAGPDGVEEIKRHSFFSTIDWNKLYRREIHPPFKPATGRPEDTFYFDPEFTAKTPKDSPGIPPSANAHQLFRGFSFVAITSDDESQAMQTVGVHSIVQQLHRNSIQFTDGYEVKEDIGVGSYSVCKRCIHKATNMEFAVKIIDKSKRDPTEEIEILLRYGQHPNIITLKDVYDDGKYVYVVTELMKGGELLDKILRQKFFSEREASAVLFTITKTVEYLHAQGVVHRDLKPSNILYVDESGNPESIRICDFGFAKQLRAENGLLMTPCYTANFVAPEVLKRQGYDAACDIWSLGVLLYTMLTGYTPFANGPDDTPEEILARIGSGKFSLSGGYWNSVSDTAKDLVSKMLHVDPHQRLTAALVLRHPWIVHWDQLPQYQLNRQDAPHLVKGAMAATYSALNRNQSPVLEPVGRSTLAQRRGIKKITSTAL

Row | % activity at 100 µM (SRPK1(h) (human)) [%] | % activity at 100 µM (SAPK2b(h) (human)) [%] | % activity at 100 µM (Rsk2(h) (human)) [%] | % activity at 100 µM (SGK2(h) (human)) [%] | % activity at 100 µM (GSK3β(h) (human)) [%] | % activity at 100 µM (LOK(h) (human)) [%] | % activity at 100 µM (DMPK(h) (human)) [%] | % activity at 100 µM (EphB4(h) (human)) [%] | % activity at 100 µM (ALK(h) (human)) [%] | % activity at 100 µM (CDK5/p35(h) (human)) [%] | % activity at 100 µM (Flt3(D835Y)(h) (human)) [%] | % activity at 100 µM (IR(h), activated (human)) [%] | % activity at 100 µM (CHK2(h) (human)) [%] | % activity at 100 µM (MAPKAP-K2(h) (human)) [%] | % activity at 100 µM (Tec(h) activated (human)) [%] | % activity at 100 µM (CSK(h) (human)) [%] | % activity at 100 µM (Flt3(h) (human)) [%] | % activity at 100 µM (IR(h) (human)) [%] | % activity at 100 µM (MARK1(h) (human)) [%] | % activity at 100 µM (Tie2(h) (human)) [%] | Substance | further results
1 | 96 | 82 | 38 | 98 | 202 | 18 | 54 | 28 | 16 | 76 | 71 | 59 | 54 | 5 | 29 | 16 | 18 | 85 | 120 | 21 | MMI-0400 (peptide) | % activity at 100 µM [1]: 78%
2 | 80 | 42 | 14 | -1 | 238 | 7 | 12 | 38 | 12 | 59 | 65 | 90 | 13 | 9 | 33 | 2 | 17 | 95 | 110 | 22 | MMI-0500 (peptide) | % activity at 100 µM [1]: 53%
3 | 90 | 81 | 51 | 56 | 205 | 37 | 59 | 44 | 19 | 79 | 80 | 79 | 66 | 5 | 56 | 49 | 84 | 96 | 132 | 26 | MMI-0300 (peptide) | % activity at 100 µM [1]: 85%
